Tests used:
[1] = biological target: Detergent-soluble HLA-DR2 purified from MGAR cells (DRB1*1501) (human)
[2] = biological target: Detergent-soluble HLA-DR4 purified from Priess cells (DRB1*0401) (human)
[3] = biological target: Detergent-soluble HLA-DR1 purified from LG-2 cells (DRB1*0101) (human)
[4] = biological target: Detergent-soluble HLA-DR2 purified from MGAR cells (DRB1*1501) (human); assay: competition with biotinylated TAL for purified HLA-DR; competitor TAL
[5] = biological target: Detergent-soluble HLA-DR1 purified from LG-2 cells (DRB1*0101) (human); assay: as above
[6] = biological target: Detergent-soluble HLA-DR4 purified from Priess cells (DRB1*0401) (human); assay: as above

| Molecule | IC50 [1] | Kd [1] | IC50 [2] | Kd [2] | IC50 [3] | Kd [3] | fold amount of superantigen needed to inhibit TAL binding [4] | fold amount of superantigen needed to inhibit TAL binding [5] | fold amount of superantigen needed to inhibit TAL binding [6] |
| --- | --- | --- | --- | --- | --- | --- | --- | --- | --- |
| Copolymer 1 | 10.1 µM | 0.082 µM | 10.8 µM | 0.015 µM | 8.8 µM | 0.074 µM | – | – | – |
| GAL terpolymer (SD-1689), poly[L-Glu 0.153, L-Ala 0.479, L-Lys 0.365] | < 1000 µM | 0.017 µM | < 1000 µM | 0.003 µM | < 1000 µM | – | – | – | – |
| GTL terpolymer (SD-1697), poly[L-Tyr 0.162, L-Glu 0.259, L-Lys 0.579] | 25.4 µM | – | 43 µM | 0.008 µM | 43 µM | 0.004 µM | – | – | – |
| TAL terpolymer (SD-1691), poly[L-Tyr 0.102, L-Ala 0.542, L-Lys 0.353] | 2.7 µM | 0.017 µM | – | – | 3.3 µM | – | – | – | – |
| TGA terpolymer (SD-1690), poly[L-Tyr 0.136, L-Glu 0.21, L-Ala 0.648] | 9.5 µM | 0.008 µM | 1 µM | 0.008 µM | 1.3 µM | 0.01 µM | – | – | – |
| bacterial superantigen SEA (other) SEKSEEINEKDLRKKSELQGTALGNLKQIYYYNEKAKTENKESHDQFLQHTILFKGFFTDHSWYNDLLVDFDSKDIVDKYKGKKVDLYGAYYGYQCAGGTPNKTACMYGGVTLHDNNRLTEEKKVPINLWLDGKQNTVPLETVKTNKKNVTVQELDLQARRYLQEKYNLYNSDVFDGKVQRGLIVFHTSTEPSVNYDLFGAQGQYSNTLLRIYRDNKTINSENMHIDIYLYTS | – | – | – | – | – | – | 50 fold | 50 fold | 50 fold |
| bacterial superantigen SEB (other) ESQPDPKPDELHKSSKFTGLMENMKVLYDDNHVSAINVKSIDQFLYFDLIYSIKDTKLGNYDNVRVEFKNKDLADKYKDKYVDVFGANYYYQCYFSKKTNDINSHQTDKRKTCMYGGVTEHNGNQLDKYRSITVRVFEDGKNLLSFDVQTNKKKVTAQELDYLTRHYLVKNKKLYEFNNSPYETGYIKFIENENSFWYDMMPAPGDKFDQSKYLMMYNDNKMVDSKDVKIEVYLTTKKK | – | – | – | – | – | – | 50 fold | 50 fold | 50 fold |
| bacterial superantigen TSST-1 (other) STNDNIKDLLDWYSSGSDTFTNSEVLDNSLGSMRIKNTDGSISLIIFPSPYYSPAFTKGEKVDLNTKRTKKSQHTSEGTYIHFQISGVTNTEKLPTPIELPLKVKVHGKDSPLKYGPKFDKKQLAISTLDFEIRHQLTQIHGLYRSSDKTGGYWKITMNDGSTYQSDLSKKFEYNTEKPPINIDEIKTIEAEIN | – | – | – | – | – | – | 50 fold | 50 fold | 50 fold |
